Reference: patent US20260242735A1 (UNIVERSIT T BASEL, published 2026)

What was measured:
Assay in all cases: flow cytometry, alanine scan
[1] = biological target: human CD33 G318A (human, UniProt P20138 18-364)
Protocol: (§1) An alanine scan on human CD33 was performed to the determine the residues on CD33 that are involved in binding to the antibodies investigated. […] Briefly, a mutation library of CD33 was created by high-throughput, site-directed mutagenesis. Each residue was individually mutated to alanine, with alanine codons mutated to serine. The mutant library was arrayed in 384-well microplates and transiently transfected into HEK293-T. Following transfection, cells were incubated with the indicated antibodies (IgG or Fab) at concentrations pre-determined using an independent immunofluorescence titration curve on wild type CD33. […] Binding of each antibody to each mutant clone was determined in duplicates. For each point, background fluorescence was subtracted from the raw data, which were then normalized to antibody reactivity with wild type CD33.
(§2) Critical residues for antibody binding (outlined in dark grey) were residues whose mutations led to a binding of the test Abs of less than 20%. Additional secondary residues (outlined in light grey) were identified that led to a binding of the test Abs of between 20 and 40% as compared to the wild type CD33.

[2] = biological target: human CD33 V361A (human, UniProt P20138 18-364)
Protocol: as §1, §2

[3] = biological target: human CD33 R362A (human, UniProt P20138 18-364)
Protocol: as §1, §2

[4] = biological target: human CD33 H339A (human, UniProt P20138 18-364)
Protocol: as §1, §2

[5] = biological target: human CD33 K352A (human, UniProt P20138 18-364)
Protocol: as §1, §2

[6] = biological target: human CD33 T354A (human, UniProt P20138 18-364)
Protocol: as §1, §2

[7] = biological target: human CD33 T320A (human, UniProt P20138 18-364)
Protocol: as §1, §2

[8] = biological target: human CD33 E333A (human, UniProt P20138 18-364)
Protocol: as §1, §2

[9] = biological target: human CD33 T356A (human, UniProt P20138 18-364)
Protocol: as §1, §2

[10] = biological target: human CD33 A329S (human, UniProt P20138 18-364)
Protocol: as §1, §2

[11] = biological target: human CD33 L343A (human, UniProt P20138 18-364)
Protocol: as §1, §2

[12] = biological target: human CD33 P319A (human, UniProt P20138 18-364)
Protocol: as §1, §2

[13] = biological target: human CD33 E321A (human, UniProt P20138 18-364)
Protocol: as §1, §2

[14] = biological target: human CD33 N349A (human, UniProt P20138 18-364)
Protocol: as §1, §2

[15] = biological target: human CD33 P350A (human, UniProt P20138 18-364)
Protocol: as §1, §2

[16] = biological target: human CD33 G347A (human, UniProt P20138 18-364)
Protocol: as §1, §2

[17] = biological target: human CD33 N344A (human, UniProt P20138 18-364)
Protocol: as §1, §2

[18] = biological target: human CD33 S324A (human, UniProt P20138 18-364)
Protocol: as §1, §2

[19] = biological target: human CD33 C325A (human, UniProt P20138 18-364)
Protocol: as §1, §2

[20] = biological target: human CD33 D353A (human, UniProt P20138 18-364)
Protocol: as §1, §2

[21] = biological target: human CD33 H346A (human, UniProt P20138 18-364)
Protocol: as §1, §2

[22] = biological target: human CD33 P330A (human, UniProt P20138 18-364)
Protocol: as §1, §2

[23] = biological target: human CD33 D335A (human, UniProt P20138 18-364)
Protocol: as §1, §2

[24] = biological target: human CD33 M348A (human, UniProt P20138 18-364)
Protocol: as §1, §2

[25] = biological target: human CD33 Y358A (human, UniProt P20138 18-364)
Protocol: as §1, §2

[26] = biological target: human CD33 S359A (human, UniProt P20138 18-364)
Protocol: as §1, §2

[27] = biological target: human CD33 S323A (human, UniProt P20138 18-364)
Protocol: as §1, §2

[28] = biological target: human CD33 V332A (human, UniProt P20138 18-364)
Protocol: as §1, §2

[29] = biological target: human CD33 A328S (human, UniProt P20138 18-364)
Protocol: as §1, §2

[30] = biological target: human CD33 T363A (human, UniProt P20138 18-364)
Protocol: as §1, §2

[31] = biological target: human CD33 S351A (human, UniProt P20138 18-364)
Protocol: as §1, §2

[32] = biological target: human CD33 T322A (human, UniProt P20138 18-364)
Protocol: as §1, §2

[33] = biological target: human CD33 S342A (human, UniProt P20138 18-364)
Protocol: as §1, §2

[34] = biological target: human CD33 E337A (human, UniProt P20138 18-364)
Protocol: as §1, §2

[35] = biological target: human CD33 Y340A (human, UniProt P20138 18-364)
Protocol: as §1, §2

[36] = biological target: human CD33 E357A (human, UniProt P20138 18-364)
Protocol: as §1, §2

[37] = biological target: human CD33 L338A (human, UniProt P20138 18-364)
Protocol: as §1, §2

[38] = biological target: human CD33 Q364A (human, UniProt P20138 18-363)
Protocol: as §1, §2

[39] = biological target: human CD33 S355A (human, UniProt P20138 18-364)
Protocol: as §1, §2

[40] = biological target: human CD33 F345A (human, UniProt P20138 18-364)
Protocol: as §1, §2

[41] = biological target: human CD33 E360A (human, UniProt P20138 18-364)
Protocol: as §1, §2

[42] = biological target: human CD33 G327A (human, UniProt P20138 18-364)
Protocol: as §1, §2

[43] = biological target: human CD33 T331A (human, UniProt P20138 18-364)
Protocol: as §1, §2

[44] = biological target: human CD33 M334A (human, UniProt P20138 18-364)
Protocol: as §1, §2

[45] = biological target: human CD33 E336A (human, UniProt P20138 18-364)
Protocol: as §1, §2

[46] = biological target: human CD33 S326A (human, UniProt P20138 18-364)
Protocol: as §1, §2

[47] = biological target: human CD33 A341S (human, UniProt P20138 18-364)
Protocol: as §1, §2

human CD33 S355A, sequence (P20138 18-364 S355A limits assumed): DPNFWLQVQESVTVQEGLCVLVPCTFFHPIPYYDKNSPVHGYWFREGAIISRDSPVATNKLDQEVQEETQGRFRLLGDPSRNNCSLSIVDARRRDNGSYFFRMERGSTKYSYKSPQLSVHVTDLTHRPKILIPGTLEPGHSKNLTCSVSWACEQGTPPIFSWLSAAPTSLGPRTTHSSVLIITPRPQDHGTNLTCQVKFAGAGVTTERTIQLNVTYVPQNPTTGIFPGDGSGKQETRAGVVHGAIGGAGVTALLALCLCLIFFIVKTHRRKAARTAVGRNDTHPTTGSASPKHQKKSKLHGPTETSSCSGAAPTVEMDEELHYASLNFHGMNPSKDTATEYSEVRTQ
human CD33 V332A, sequence (P20138 18-364 V332A limits assumed): as the sequence (P20138 18-364 S355A limits assumed) above, with V315A, A338S counted along it
human CD33 P319A, sequence (P20138 18-364 P319A limits assumed): as the sequence (P20138 18-364 S355A limits assumed) above, with P302A, A338S counted along it
human CD33 T322A, sequence (P20138 18-364 T322A limits assumed): as the sequence (P20138 18-364 S355A limits assumed) above, with T305A, A338S counted along it
human CD33 S323A, sequence (P20138 18-364 S323A limits assumed): as the sequence (P20138 18-364 S355A limits assumed) above, with S306A, A338S counted along it
human CD33 T320A, sequence (P20138 18-364 T320A limits assumed): as the sequence (P20138 18-364 S355A limits assumed) above, with T303A, A338S counted along it
human CD33 L343A, sequence (P20138 18-364 L343A limits assumed): as the sequence (P20138 18-364 S355A limits assumed) above, with L326A, A338S counted along it
human CD33 E321A, sequence (P20138 18-364 E321A limits assumed): as the sequence (P20138 18-364 S355A limits assumed) above, with E304A, A338S counted along it
human CD33 F345A, sequence (P20138 18-364 F345A limits assumed): as the sequence (P20138 18-364 S355A limits assumed) above, with F328A, A338S counted along it
human CD33 S342A, sequence (P20138 18-364 S342A limits assumed): as the sequence (P20138 18-364 S355A limits assumed) above, with S325A, A338S counted along it
human CD33 P330A, sequence (P20138 18-364 P330A limits assumed): as the sequence (P20138 18-364 S355A limits assumed) above, with P313A, A338S counted along it
human CD33 Q364A, sequence (P20138 18-364 Q364A limits assumed): as the sequence (P20138 18-364 S355A limits assumed) above, with A338S, Q347A counted along it
human CD33 N349A, sequence (P20138 18-364 N349A limits assumed): as the sequence (P20138 18-364 S355A limits assumed) above, with N332A, A338S counted along it
human CD33 V361A, sequence (P20138 18-364 V361A limits assumed): as the sequence (P20138 18-364 S355A limits assumed) above, with A338S, V344A counted along it

B1: Refmab #3 (antibody, V domains shown)
VH: QVQLVQSGAEVKKPGSSVKVSCKASGYTFTDYNMHWVRQAPGQGLEWIGYIYPYNGGTGYNQKFKSKATITADESTNTAYMELSSLRSEDTAVYYCARGRPAMDYWGQGTLVTVSS
VL: DIQMTQSPSSLSASVGDRVTITCRASESVDNYGISFMNWFQQKPGKAPKLLIYAASNQGSGVPSRFSGSGSGTDFTLTISSLQPDDFATYYCQQSKEVPWTFGQGTKVEIK
notes: The alanine scan used IgG or Fab
[1]
  Mean % WT Binding: 117 % of WT
[2]
  Mean % WT Binding: 97.6 % of WT
[3]
  Mean % WT Binding: 114 % of WT
[4]
  Mean % WT Binding: 83.5 % of WT
[5]
  Mean % WT Binding: 96.3 % of WT
[6]
  Mean % WT Binding: 89.1 % of WT
[7]
  Mean % WT Binding: 82.4 % of WT
[8]
  Mean % WT Binding: 104 % of WT
[9]
  Mean % WT Binding: 108 % of WT
[10]
  Mean % WT Binding: 133 % of WT
[11]
  Mean % WT Binding: 77.4 % of WT
[12]
  Mean % WT Binding: 76.4 % of WT
[13]
  Mean % WT Binding: 88.4 % of WT
[14]
  Mean % WT Binding: 121 % of WT
[15]
  Mean % WT Binding: 90.7 % of WT
[16]
  Mean % WT Binding: 118 % of WT
[17]
  Mean % WT Binding: 118 % of WT
[18]
  Mean % WT Binding: 109 % of WT
[19]
  Mean % WT Binding: 91.2 % of WT
[20]
  Mean % WT Binding: 98.3 % of WT
[21]
  Mean % WT Binding: 133 % of WT
[22]
  Mean % WT Binding: 146 % of WT
[23]
  Mean % WT Binding: 87.4 % of WT
[24]
  Mean % WT Binding: 133 % of WT
[25]
  Mean % WT Binding: 140 % of WT
[26]
  Mean % WT Binding: 135 % of WT
[27]
  Mean % WT Binding: 115 % of WT
[28]
  Mean % WT Binding: 89.8 % of WT
[29]
  Mean % WT Binding: 127 % of WT
[30]
  Mean % WT Binding: 91.5 % of WT
[31]
  Mean % WT Binding: 91.8 % of WT
[32]
  Mean % WT Binding: 83.5 % of WT
[33]
  Mean % WT Binding: 121 % of WT
[34]
  Mean % WT Binding: 114 % of WT
[35]
  Mean % WT Binding: 88 % of WT
[36]
  Mean % WT Binding: 120 % of WT
[37]
  Mean % WT Binding: 89.3 % of WT
[38]
  Mean % WT Binding: 97.8 % of WT
[39]
  Mean % WT Binding: 85.6 % of WT
[40]
  Mean % WT Binding: 84 % of WT
[41]
  Mean % WT Binding: 123 % of WT
[42]
  Mean % WT Binding: 132 % of WT
[43]
  Mean % WT Binding: 147 % of WT
[44]
  Mean % WT Binding: 81.2 % of WT
[45]
  Mean % WT Binding: 103 % of WT
[46]
  Mean % WT Binding: 129 % of WT
[47]
  Mean % WT Binding: 138 % of WT
